The values that follow come from patent US20260152555A1 (HUAHUI HEALTH, published 2026).

Residue numbers refer to the chain shown, from its start. Names and notes keep the numbering of the source.

Assay [1] addresses T1, hCD112R-ECD-mFc W100A variant (human; mouse, UniProt Q6DKI7 42-172).
T1 construct: range 42-172; also called W100A mutation of hCD112R; not shown: Fc domain of mouse IgG2a
T1 sequence (looked up): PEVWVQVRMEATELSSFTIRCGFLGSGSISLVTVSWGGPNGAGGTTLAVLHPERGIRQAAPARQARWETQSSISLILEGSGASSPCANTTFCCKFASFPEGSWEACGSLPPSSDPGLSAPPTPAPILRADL
The assay is described as follows: SPR (Biacore T200), multi-cycle; H733-hIgG4 captured on anti-hFc Ab, hCD112R-ECD-mFc variant injected (3.125-100 nM); 1:1 Langmuir [Cont') B]. How it is done:
(§1) Kinetic analyses of the bindings of WT or mutated hCD112R-ECD-mFc proteins to H733 and hCD112-ECD were performed on a Biacore T200 instrument (Biacore, GE Healthcare). For the single-cycle SPR analysis, anti-mFc Ab (Thermo Fisher) was covalently attached to surfaces of a CM5 sensor chip using an amine coupling kit (GE Healthcare). WT or mutated hCD112R-ECD mFc fusion proteins were captured on the chip and H733-hIgG4 or hCD112-ECD-hFc were then injected. For the multi-cycle SPR analysis, anti-hFc Ab (Thermo Fisher) was covalently attached to surfaces of a CM5 sensor chip using an amine coupling kit (GE Healthcare). H733-hIgG4 or hCD112-ECD-hFc protein was captured on the chip and 2-fold serially diluted WT or mutated hCD112R-ECD-mFc proteins (3.125-100 nM) were then injected. Binding kinetics were evaluated using a 1:1 Langmuir binding model. The association rates (ka), dissociation rates (kd), and affinity constants (KD) were calculated using Biacore T200 evaluation software.
For orientation: In SPR one partner is held on a chip, and binding of the other changes the refractive index at the surface.

The target of assay [2] is T2, hCD112R-ECD-mFc E145A variant (human; mouse, UniProt Q6DKI7 42-172).
T2 construct: range 42-172; also called E145A mutation of hCD112R; not shown: Fc domain of mouse IgG2a
T2 sequence (looked up): T1 sequence (looked up) with A59W, E104A
The assay is described as above. Here is the method:
as §1

The target of assay [3] is T3, L72A (human, UniProt Q6DKI7).
T3 construct: extracellular domain, amino acids 42-172; alanine-scanning variant; also called hCD112R-ECD-mFc L72A variant
T3 sequence (Fc fusion chain, looked up): T1 sequence (looked up) with L31A, A59W
The assay is described as above. Here is the method: as §1

Assay [4] has as its target T4, F139A (human, UniProt Q6DKI7).
T4 construct: extracellular domain, amino acids 42-172; alanine-scanning variant; also called hCD112R-ECD-mFc F139A variant
T4 sequence (Fc fusion chain, looked up): T1 sequence (looked up) with A59W, F98A
Described as above. Here is the method:
as §1

The target of assay [5] is T5, H92A (human, UniProt Q6DKI7).
T5 construct: extracellular domain, amino acids 42-172; alanine-scanning variant; also called hCD112R-ECD-mFc H92A variant
T5 sequence (Fc fusion chain, looked up): T1 sequence (looked up) with H51A, A59W
The description is as above. How it is done:
as §1

In assay [6] the target is T6, hCD112R-ECD-His6-Avi (human, UniProt Q6DKI7 42-172, biotinylated (Avi tag) in the ELISA assays).
T6 construct: range 42-172; Expressed in HEK 293F cells; Analyte in SPR, and captured on streptavidin in ELISA; also called biotinylated hCD112R-ECD-His6-Avi; not shown: C-terminal His6-Avi tag
T6 sequence (looked up): T1 sequence (looked up) with A59W
The assay is described as follows: ELISA-based competition, biotinylated hCD112R-ECD-His6-Avi on streptavidin, competitor hCD112-ECD-mFc at 0.1 ug/ml. Here is the method:
Biotinylated hCD112R-ECD-His₆-Avi protein antigen was captured with streptavidin (Sigma) coated 96-well plates (Nunc, MaxiSorp™). H733 serially diluted in 2% milk/PBS containing 0.1 μg/ml of the hCD112-ECD-mFc protein were added to the ELISA plates to test for competitive binding between hCD112R and hCD112. The signal was measured via ligand detection using HRP-anti-mouse IgG secondary Ab (Thermo Fisher Scientific).
(In general: An ELISA detects its analyte on a solid surface through an enzyme-linked reagent.)

B1: H733 (humanized Ab composed of 733-VH-humanV2 and 733-VL-human-C91S) (antibody, human IgG4, V domains shown)
VH: QVQLVQSGAEVKKPGASVKVSCKASGYTFTNYLIEWVRQAPGQGLEWMGVINPGHGFTNYAQKFQGRVTMTRDTSTSTVYMELSSLRSEDTAVYYCARGEWDWYFDVWGQGTTVTVSS
VL: DIQLTQSPSFLSASVGDRVTITCKASQNVGTAVAWYQQKPGKAPKLLIYSTSNRYTGVPSRFSGSGSGTEFTLTISSLQPEDFATYYCQQSSSYPFTFGGGTKVEIK
notes: also called H733-hIgG4; H733 mAb (hIgG4 form)
In general, Kd refers to a measure of binding affinity in units of concentration. Read a high Kd as a looser complex. A word on the koff: it is the rate constant with which the complex falls apart. Low values mean slow dissociation, high ones fast dissociation. Usually kon stands for the rate constant with which the complex forms. One may read the IC50 as the concentration that gives 50% inhibition. Read a low IC50 as greater potency in that assay. On to B1, for which the Kd in assay [1] amounted to 5.64 nM; in assay [2], 1.42 nM; in assay [3], 0.469 nM; in assay [4] it was 0.165 nM; in assay [5], 0.366 nM. Further, the koff amounted to 0.000574 s⁻¹ in assay [1]; 0.000418 s⁻¹ in assay [2]; 0.000394 s⁻¹ in assay [3]; 0.000232 s⁻¹ in assay [4]; 0.000373 s⁻¹ in assay [5]. The kon in assay [1] amounted to 102000 M⁻¹ s⁻¹; in assay [2], 296000 M⁻¹ s⁻¹; in assay [3], 840000 M⁻¹ s⁻¹; in assay [4], 1.4e+06 M⁻¹ s⁻¹; in assay [5], 1.02e+06 M⁻¹ s⁻¹. Besides, the IC50 in assay [6] came out at 0.87 µg/mL.
